From patent US20140271457A1 (AbbVie / Abbott, published 2014)
Substitutions are numbered along the chain they refer to. Each block holds one binder with its values, some of them ahead of it.

Target: Recombinant Human IL-13 (human, UniProt P35225 35-146, limits assumed)
Assay: Biacore SPR
Summary of the method: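 Antibodies or DVD-Ig captured on anti-mouse IgG (Fcγ) CM5 surface, SPR at 25 °C in HBS-EP+. Antigen at 0.8–100 nM, 50 μl/min; association 5 min, dissociation 10 min. kon and koff came from a global 1:1 fit with local Rmax.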

Recombinant Human IL-13, sequence (P35225 35-146 limits assumed): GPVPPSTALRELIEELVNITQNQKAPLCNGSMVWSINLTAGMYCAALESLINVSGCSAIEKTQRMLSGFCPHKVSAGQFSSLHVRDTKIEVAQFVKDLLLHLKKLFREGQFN

Kd: 15 pM
koff: 1.2e-06 s⁻¹
kon: 75000 M⁻¹ s⁻¹
B1: DVD3113 (bispecific antibody, IgG1)
VH: EVQLVQSGAEVKKPGASVKVSCKASGYTFNNYGIIWVRQAPGQGLEWMGWINTYTGKPTYAQKFQGRVTMTTDTSTSTAYMELSSLRSEDTAVYYCARKLFNTVAVTDNAMDYWGQGTTVTVSSGGGGSGGGGSEVQLVQSGAEVKKPGASVKVSCKASGYTFTTYGVSWVRQAPGQGLEWMGEIYPGNYNTYYNEKFRGRVTMTTDTSTSTAYMELRSLRSDDTAVYYCARWRTSYFSDYGYFDYWGQGTTVTVSS
VL: DIQMTQSPSSLSASVGDRVTITCRASQDIENYLNWYQQKPGKAPKLLIYYTSRLQSGVPSRFSGSGSGTDFTLTISSLQPEDFATYFCQQGNTQPPTFGQGTKLEIKRGGSGGGGSGDVVMTQSPLSLPVTLGQPASISCRSSQSLVHSHGNTYLHWYQQRPGQSPRLLIYTVSNRFSGVPDRFSGSGSGTDFTLKISRVEAEDVGVYYCSQSTHVPYTFGGGTKVEIKR
notes: DVD-Ig; wt hIgG1 + kappa constants

Kd: 120 pM
koff: 7.3e-06 s⁻¹
kon: 62000 M⁻¹ s⁻¹
B2: DVD3144 (bispecific antibody, IgG1)
VH: EVQLVESGGGLVQPGGSLRLSCAASGFTFSNYGVTWVRQAPGKGLEWVSMIWADGSTHYASSVKGRFTISRDNSKNTLYLQMNSLRAEDTAVYYCAREWQHGPVAYWGQGTLVTVSSASTKGPEVQLVQSGAEVKKPGASVKVSCKASGYTFTSYWMHWVRQAPGQGLEWIGNINPKGGSNIYNEKFQGRVTMTRDTSISTAYMELSRLRSDDTAVYYCARLDYFGDSFDLWGQGTTVTVSS
VL: DIQMTQSPSSLSASVGDRVTITCRASQLVSSAVAWYQQKPGKAPKLLIYWASARHTGVPSRFSGSGSGTDFTLTISSLQPEDFATYYCQQHYKTPFTFGQGTKLEIKRTVAAPDIQMTQSPSSLSASVGDRVTITCRASQGIRNYLNWYQQKPGKAPKLLIYYASNLEVGVPSRFSGSGSGTDYTLTISSLQPEDFATYYCQQDNRFPYTFGGGTKVEIKR
notes: as for B1

Kd: 240 pM
koff: 4.6e-05 s⁻¹
kon: 190000 M⁻¹ s⁻¹
B3: DVD3146 (bispecific antibody, IgG1)
VH: B2 VH
VL: DIQMTQSPSSLSASVGDRVTITCRASQLVSSAVAWYQQKPGKAPKLLIYWASARHTGVPSRFSGSGSGTDFTLTISSLQPEDFATYYCQQHYKTPFTFGQGTKLEIKRTVAAPSVFIFPPDIQMTQSPSSLSASVGDRVTITCRASQGIRNYLNWYQQKPGKAPKLLIYYASNLEVGVPSRFSGSGSGTDYTLTISSLQPEDFATYYCQQDNRFPYTFGGGTKVEIKR
notes: as for B1

Kd: 340 pM
koff: 5.4e-05 s⁻¹
kon: 160000 M⁻¹ s⁻¹
B4: DVD3156 (bispecific antibody, IgG1)
VH: B2 VH with T35E, M50G, S61D, S62T, G65S
VL: B3 VL with R24K, A53T, R54L, K93R
notes: as for B1

Kd: 580 pM
koff: 3e-05 s⁻¹
kon: 53000 M⁻¹ s⁻¹
B5: DVD3154 (bispecific antibody, IgG1)
VH: B2 VH with T35E, M50G, S61D, S62T, G65S
VL: B2 VL with R24K, A53T, R54L, K93R
notes: as for B1

Kd: 12 pM
koff: 1.1e-06 s⁻¹
kon: 87000 M⁻¹ s⁻¹
B6: DVD3084 (bispecific antibody, IgG1)
VH: EVQLVESGGGLVQPGGSLRLSCAASGFTFSNYGVTWVRQAPGKGLEWVSMIWADGSTHYASSVKGRFTISRDNSKNTLYLQMNSLRAEDTAVYYCAREWQHGPVAYWGQGTLVTVSSASTKGPEVQLVQSGAEVKKPGASVKVSCKASGYTFTTYGVSWVRQAPGQGLEWMGEIYPGNYNTYYNEKFRGRVTMTTDTSTSTAYMELRSLRSDDTAVYYCARWRTSYFSDYGYFDYWGQGTTVTVSS
VL: DIQMTQSPSSLSASVGDRVTITCRASQLVSSAVAWYQQKPGKAPKLLIYWASARHTGVPSRFSGSGSGTDFTLTISSLQPEDFATYYCQQHYKTPFTFGQGTKLEIKRTVAAPDVVMTQSPLSLPVTLGQPASISCRSSQSLVHSHGNTYLHWYQQRPGQSPRLLIYTVSNRFSGVPDRFSGSGSGTDFTLKISRVEAEDVGVYYCSQSTHVPYTFGGGTKVEIKR
notes: as for B1

Kd: < 20 pM
koff: < 1e-06 s⁻¹
kon: 51000 M⁻¹ s⁻¹
B7: DVD3087 (bispecific antibody, IgG1)
VH: EVQLVESGGGLVQPGGSLRLSCAASGFTFSNYGVTWVRQAPGKGLEWVSMIWADGSTHYASSVKGRFTISRDNSKNTLYLQMNSLRAEDTAVYYCAREWQHGPVAYWGQGTLVTVSSASTKGPSVFPLAPEVQLVQSGAEVKKPGASVKVSCKASGYTFTTYGVSWVRQAPGQGLEWMGEIYPGNYNTYYNEKFRGRVTMTTDTSTSTAYMELRSLRSDDTAVYYCARWRTSYFSDYGYFDYWGQGTTVTVSS
VL: B6 VL
notes: as for B1

Kd: < 15 pM
koff: < 1e-06 s⁻¹
kon: 65000 M⁻¹ s⁻¹
B8: DVD3086 (bispecific antibody, IgG1)
VH: B6 VH
VL: DIQMTQSPSSLSASVGDRVTITCRASQLVSSAVAWYQQKPGKAPKLLIYWASARHTGVPSRFSGSGSGTDFTLTISSLQPEDFATYYCQQHYKTPFTFGQGTKLEIKRTVAAPSVFIFPPDVVMTQSPLSLPVTLGQPASISCRSSQSLVHSHGNTYLHWYQQRPGQSPRLLIYTVSNRFSGVPDRFSGSGSGTDFTLKISRVEAEDVGVYYCSQSTHVPYTFGGGTKVEIKR
notes: as for B1

Kd: 0.76 pM
koff: 5.3e-08 s⁻¹
kon: 70000 M⁻¹ s⁻¹
B9: DVD3096 (bispecific antibody, IgG1)
VH: B6 VH with T35E, M50G, S61D, S62T, G65S
VL: B8 VL with R24K, A53T, R54L, K93R
notes: as for B1

Kd: 67 pM
koff: 5.9e-06 s⁻¹
kon: 89000 M⁻¹ s⁻¹
B10: DVD3094 (bispecific antibody, IgG1)
VH: B6 VH with T35E, M50G, S61D, S62T, G65S
VL: B6 VL with R24K, A53T, R54L, K93R
notes: as for B1

Kd: < 21 pM
koff: < 1e-06 s⁻¹
kon: 48000 M⁻¹ s⁻¹
B11: DVD3097 (bispecific antibody, IgG1)
VH: B7 VH with T35E, M50G, S61D, S62T, G65S
VL: B6 VL with R24K, A53T, R54L, K93R
notes: as for B1

Kd: < 20 pM
koff: < 1e-06 s⁻¹
kon: 51000 M⁻¹ s⁻¹
B12: DVD3093 (bispecific antibody, IgG1)
VH: EVQLVESGGGLVQPGGSLRLSCAASGFTFSNYGVEWVRQAPGKGLEWVSGIWADGSTHYADTVKSRFTISRDNSKNTLYLQMNSLRAEDTAVYYCAREWQHGPVAYWGQGTLVTVSSGGGGSGGGGSEVQLVQSGAEVKKPGASVKVSCKASGYTFTTYGVSWVRQAPGQGLEWMGEIYPGNYNTYYNEKFRGRVTMTTDTSTSTAYMELRSLRSDDTAVYYCARWRTSYFSDYGYFDYWGQGTTVTVSS
VL: DIQMTQSPSSLSASVGDRVTITCKASQLVSSAVAWYQQKPGKAPKLLIYWASTLHTGVPSRFSGSGSGTDFTLTISSLQPEDFATYYCQQHYRTPFTFGQGTKLEIKRGGSGGGGSGDVVMTQSPLSLPVTLGQPASISCRSSQSLVHSHGNTYLHWYQQRPGQSPRLLIYTVSNRFSGVPDRFSGSGSGTDFTLKISRVEAEDVGVYYCSQSTHVPYTFGGGTKVEIKR
notes: as for B1

Kd: 44 pM
koff: 2.5e-05 s⁻¹
kon: 580000 M⁻¹ s⁻¹
B13: DVD3092 (bispecific antibody, IgG1)
VH: EVQLVQSGAEVKKPGASVKVSCKASGYTFTTYGVSWVRQAPGQGLEWMGEIYPGNYNTYYNEKFRGRVTMTTDTSTSTAYMELRSLRSDDTAVYYCARWRTSYFSDYGYFDYWGQGTTVTVSSASTKGPSVFPLAPEVQLVESGGGLVQPGGSLRLSCAASGFTFSNYGVTWVRQAPGKGLEWVSMIWADGSTHYASSVKGRFTISRDNSKNTLYLQMNSLRAEDTAVYYCAREWQHGPVAYWGQGTLVTVSS
VL: DVVMTQSPLSLPVTLGQPASISCRSSQSLVHSHGNTYLHWYQQRPGQSPRLLIYTVSNRFSGVPDRFSGSGSGTDFTLKISRVEAEDVGVYYCSQSTHVPYTFGGGTKVEIKRTVAAPDIQMTQSPSSLSASVGDRVTITCRASQLVSSAVAWYQQKPGKAPKLLIYWASARHTGVPSRFSGSGSGTDFTLTISSLQPEDFATYYCQQHYKTPFTFGQGTKLEIKR
notes: as for B1

Kd: 370 pM
koff: 6.2e-05 s⁻¹
kon: 170000 M⁻¹ s⁻¹
B14: DVD3143 (bispecific antibody, IgG1)
VH: EVQLVESGGGLVQPGGSLRLSCAASGFTFSNYGVTWVRQAPGKGLEWVSMIWADGSTHYASSVKGRFTISRDNSKNTLYLQMNSLRAEDTAVYYCAREWQHGPVAYWGQGTLVTVSSGGGGSGGGGSEVQLVQSGAEVKKPGASVKVSCKASGYTFTSYWMHWVRQAPGQGLEWIGNINPKGGSNIYNEKFQGRVTMTRDTSISTAYMELSRLRSDDTAVYYCARLDYFGDSFDLWGQGTTVTVSS
VL: DIQMTQSPSSLSASVGDRVTITCRASQLVSSAVAWYQQKPGKAPKLLIYWASARHTGVPSRFSGSGSGTDFTLTISSLQPEDFATYYCQQHYKTPFTFGQGTKLEIKRGGSGGGGSGDIQMTQSPSSLSASVGDRVTITCRASQGIRNYLNWYQQKPGKAPKLLIYYASNLEVGVPSRFSGSGSGTDYTLTISSLQPEDFATYYCQQDNRFPYTFGGGTKVEIKR
notes: as for B1

Kd: 450 pM
koff: 8.2e-05 s⁻¹
kon: 180000 M⁻¹ s⁻¹
B15: DVD3153 (bispecific antibody, IgG1)
VH: B14 VH with T35E, M50G, S61D, S62T, G65S
VL: B14 VL with R24K, A53T, R54L, K93R
notes: as for B1

Kd: 6.9 pM
koff: 1.2e-06 s⁻¹
kon: 170000 M⁻¹ s⁻¹
B16: DVD3114 (bispecific antibody, IgG1)
VH: EVQLVQSGAEVKKPGASVKVSCKASGYTFNNYGIIWVRQAPGQGLEWMGWINTYTGKPTYAQKFQGRVTMTTDTSTSTAYMELSSLRSEDTAVYYCARKLFNTVAVTDNAMDYWGQGTTVTVSSASTKGPEVQLVQSGAEVKKPGASVKVSCKASGYTFTTYGVSWVRQAPGQGLEWMGEIYPGNYNTYYNEKFRGRVTMTTDTSTSTAYMELRSLRSDDTAVYYCARWRTSYFSDYGYFDYWGQGTTVTVSS
VL: DIQMTQSPSSLSASVGDRVTITCRASQDIENYLNWYQQKPGKAPKLLIYYTSRLQSGVPSRFSGSGSGTDFTLTISSLQPEDFATYFCQQGNTQPPTFGQGTKLEIKRTVAAPDVVMTQSPLSLPVTLGQPASISCRSSQSLVHSHGNTYLHWYQQRPGQSPRLLIYTVSNRFSGVPDRFSGSGSGTDFTLKISRVEAEDVGVYYCSQSTHVPYTFGGGTKVEIKR
notes: as for B1
